In patent publication US20200181605A1 (SHANGHAI INSTITUTES FOR BIOLOGICAL SCIENCES CHINESE ACADEMY …, published 2020):

Molecular target: T1, endogenous Brd4 protein of untargeted androgenetic haploid embryonic stem cells (NC) (mouse, UniProt Q9ESU6 1-1400, limits assumed)
T1 construct: Endogenous, untagged; a mixture of the large and small isoforms in the cell lysate; also called Brd4 large protein (about 250 kDa); Brd4 small protein (110/120 kDa)
Test: Co-IP with Brd4 antibody-coupled beads, western blot

B1: CDK9 (enzyme, UniProt Q99J95 1-372, looked up)
chain: MAKQYDSVECPFCDEVTKYEKLAKIGQGTFGEVFKAKHRQTGQKVALKKVLMENEKEGFPITALREIKILQLLKHENVVNLIEICRTKASPYNRCKGSIYLVFDFCEHDLAGLLSNVLVKFTLSEIKRVMQMLLNGLYYIHRNKILHRDMKAANVLITRDGVLKLADFGLARAFSLAKNSQPNRYTNRVVTLWYRPPELLLGERDYGPPIDLWGAGCIMAEMWTRSPIMQGNTEQHQLALISQLCGSITPEVWPNVDKYELFEKLELVKGQKRKVKDRLKAYVRDPYALDLIDKLLVLDPAQRIDSDDALNHDFFWSDPMPSDLKGMLSTHLTSMFEYLAPPRRKGSQITQQSTNQSRNPATTNQTEFERVF
notes: Endogenous protein co-precipitated from mouse ES cell lysate
binding result: binds
